Reference: patent US20100016221A1, “METHOD OF DEGRADING PROTEIN BY CHAPERONE-MEDIATED AUTOPHAGY” (RIKEN, priority 2008, published 2010)

Target: T1, 150Q-EGFP (Homo sapiens, UniProt P42858)
T1 construct: N-terminal fragment of human huntington exon 1 (tNhtt); expressed in transfected cells; host or cells: Neuro2a cells, transient co-transfection (pcDNA3.1)
Experiment: Co-transfection with 150Q-EGFP in Neuro2a cells, confocal imaging with Lysotracker-rhodamine
Assay type: cell-based
Conditions: co-expression for 16 hours
Source text: The construction of the N-terminal fragment of human huntington exon 1 (tNhtt) encoding 60 CAG repeats was previously described (G. H. Wang et al., Neuroreport 10, 12(1999)). This fragment was fused to the N-terminal of a variant of yellow fluorescent protein (Venus) (T. Nagai et al., Nat. Biotechnol. 20, 1 (2002)) and inserted into the pcDNA3.1 vector (60Q). Two Hsc70 binding motifs (HSC70bm) (SEQ ID NOs:9 and 10: in bold) were inserted between the Cfr13I and BamHI cutting sites of 60Q: 5′-GTTAAGAAGGATCAA-GCTGGAGCCGCTGCACCG-AAGTTCGAACGTCAA-3′ (SEQ ID NO:11). The tNhtt-16Q-EGFP and tNhtt-150Q-EGFP plasmids for transient transfection were prepared by the introduction of the coding sequence into pcDNA3.1 vector (Invitrogen). […]
To investigate whether the (R)HQ targets the polyQ to lysosomes, the present inventors co-transfected HQ or other constructs with 16Q-EGFP or 150Q-EGFP to Neuro2a cells for 16 hours. In the cells expressing 16Q-EGFP, none of the co-transfected constructs had any effect on the subcellular distribution of the green fluorescence (FIG. 2C). […] To confirm this observation, the present inventors co-transfected the tested constructs with tNhtt-60Q to Neuro2a cells, 16 hours later purified intact lysosomes and analyzed them for the presence of the polyQ protein. […]

T1 sequence (P42858 with tags, fused parts or gaps): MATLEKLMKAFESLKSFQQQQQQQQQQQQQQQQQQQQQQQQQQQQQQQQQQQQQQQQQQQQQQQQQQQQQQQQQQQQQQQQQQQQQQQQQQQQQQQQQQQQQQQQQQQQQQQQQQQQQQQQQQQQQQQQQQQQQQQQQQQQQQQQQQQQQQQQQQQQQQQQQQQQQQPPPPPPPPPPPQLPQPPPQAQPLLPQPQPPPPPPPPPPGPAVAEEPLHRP

HSC70bm-(QBP1)2 (MARVKKDQAEPLHRKFERQPPGSNWKWWPGIFDSNWKWWPGIFD) [HQ]
subcellular distribution of 150Q-EGFP fluorescence: fluorescence intensity decreased, redistributed and partly co-localized with the lysosomal marker
